Laboratory results: article PMC10220053

Biological target: Eaf3^MRG–Rco1^PHD1–SID complex (S. cerevisiae) (UniProt Q12432)
Test: ITC; H3 1–12 peptides with the Eaf3^MRG–Rco1^PHD1–SID complex or with Rco1^PHD1 alone

Chain of Eaf3^MRG–Rco1^PHD1–SID complex (S. cerevisiae) (Q12432 218-401, chain 1 of 2): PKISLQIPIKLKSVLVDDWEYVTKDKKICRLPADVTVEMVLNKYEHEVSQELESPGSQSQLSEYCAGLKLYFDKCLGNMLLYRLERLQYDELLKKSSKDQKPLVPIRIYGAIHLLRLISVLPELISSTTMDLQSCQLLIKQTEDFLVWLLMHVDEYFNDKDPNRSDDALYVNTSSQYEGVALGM
Chain of Eaf3^MRG–Rco1^PHD1–SID complex (S. cerevisiae) (Q04779 240-376, chain 2 of 2, further chain): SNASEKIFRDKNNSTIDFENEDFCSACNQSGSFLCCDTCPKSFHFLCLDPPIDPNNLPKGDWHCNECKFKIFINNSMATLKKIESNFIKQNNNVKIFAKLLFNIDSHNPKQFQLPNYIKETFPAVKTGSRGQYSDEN

| Substance | Kd [µM] |
| --- | --- |
| H3K4me0^1–12 peptide (from UniProt P61830 2-13) | 22 |
| H3K4me1^1–12 peptide (from UniProt P61830 2-13) | 65 |
| H3K4me2^1–12 peptide (from UniProt P61830 2-13) | 360 |
